Measured values from patent US20200369755A1 (PROTHENA BIOSCIENCES, published 2020).
Where no end group is shown, it is not given here.

Assays:
Assay in all cases: peptide ELISA, biotinylated peptide on streptavidin plate; background-subtracted absorbance; positive from 0.2
19-33 = target: T1, 19-33 (also: biotinylated, site not given here)
T1 construct: also called tau peptide 19-33 (4R0N numbering)
T1 peptide: GLGDRKDQGGYTMHQ
Description: (§1) Additional peptides were used to model potential post-translational modifications of the C- and N-terminal ends of the protein.
(§2) Biotinylated peptides were bound to separate wells of a streptavidin-coated ELISA plate. The plate was blocked and treated with murine 3D6, followed by incubation with a horseradish peroxidase-conjugated anti-mouse antibody. After thorough washing, OPD was applied to the plate and allowed to develop. The plate was read at 450 nm absorbance. Background subtraction was performed with absorbance values from wells containing no primary antibody, and a threshold for positive binding was set to 0.2 absorbance units. […] (FIG. 1)

217-231 = target: T2, 217-231 (also: biotinylated, site not given here)
T2 construct: also called tau peptide 217-231 (4R0N numbering)
T2 peptide: VQIINKKLDLSNVQS
Description: as §1, §2

109-123 = target: T3, 109-123 (also: biotinylated, site not given here)
T3 construct: also called tau peptide 109-123 (4R0N numbering)
T3 peptide: NATRIPAKTPPAPKT
Description: as §1, §2

73-87 = target: T4, 73-87 (also: biotinylated, site not given here)
T4 construct: also called tau peptide 73-87 (4R0N numbering)
T4 peptide: SKDGTGSDDKKAKGA
Description: as §1, §2

127-141 = target: T5, 127-141 (also: biotinylated, site not given here)
T5 peptide: SGEPPKSGDRSGYSS
Description: as §1, §2

154-168 = target: T6, 154-168 (biotinylated)
T6 construct: also called tau peptide 154-168 (4R0N numbering)
Description: as §1, §2

64-78 = target: T7, 64-78 (also: biotinylated, site not given here)
T7 construct: also called tau peptide 64-78 (4R0N numbering)
T7 peptide: VTQARMVSKSKDGTG
Description: as §1, §2

145-159 = target: T8, 145-159 (also: biotinylated, site not given here)
T8 peptide: PGTPGSRSRTPSLPT
Description: as §1, §2

1-15* (acetylated) = target: T9, 1-15* (acetylated) (also: biotinylated (site not given here))
T9 construct: also called tau peptide 1-15 (4R0N numbering), acetylated
T9 peptide: Ac-MAEPRQEFEVMEDHA
Description: as §1, §2

binding result (19-33): no binding
binding result (217-231): no binding
binding result (109-123): no binding
binding result (73-87): no binding
binding result (127-141): no binding
binding result (154-168): no binding
binding result (64-78): no binding
binding result (145-159): no binding
binding result (1-15* (acetylated)): no binding
B1: murine 3D6 monoclonal antibody (antibody, IgG1, V domains shown)
VH: EVQLQQSGADLVRPGALVKLSCKASGFNIKDYYLHWVRQRPEQGLEWIGWIDPENGDTVYDPKFQGKATITADTSSNTAYLQLGSLTSEDTAVYFCSTLDFWGQGTTLTVSS
VL: not shown
notes: Hybridoma-derived mouse antibody; also called m3D6; mouse 3D6
